Measurements: the supplement of paper PMC10724198
± gives the standard deviation of the averaged measurements.

What was measured:
Saccharomyces cerevisiae [1] = assay: protein stability index of tFT-peptide fusion (C-terminal peptide) (PSI (0-1 scale)); higher = more stable (slower turnover)
Procedure: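 MPS profiling in S. cerevisiae of the tFT-X12 degron library: putative degron peptides plus stable controls, 12 aa, fused to the C-terminus of a sfGFP-mCherry timer. Cells are FACS-sorted into 8 mCherry/sfGFP bins and deep-sequenced. PSI runs from 0 (unstable) to 1 (stable). Backgrounds are wild type, das1Δ and doa10Δ at 30 °C, and wild type, das1Δ, cdc34-1 and cdc53-1 at 37 °C; 2-3 technical replicates each.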

Saccharomyces cerevisiae [2] = assay: as above; conditions: genetic background: wild type; temperature: 30 C
[3] = genetic background: cdc34-1, temperature: 37 C
[4] = genetic background: cdc53-1, temperature: 37 C
[5] = genetic background: das1 deletion, temperature: 30 C
[6] = genetic background: das1 deletion, temperature: 37 C
[7] = genetic background: doa10 deletion, temperature: 30 C
[8] = genetic background: wild type, temperature: 30 C
[9] = genetic background: wild type, temperature: 37 C
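Also: PSI is a weighted mean of sequencing reads over stability bins, variants kept only with over 10 reads, mCherry proximal and sfGFP distal, peptide attached via GGGS linker.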

Row | Sequence | protein stability index (Saccharomyces cerevisiae [1]; [3]) | protein stability index (Saccharomyces cerevisiae [1]; [4]) | protein stability index (Saccharomyces cerevisiae [1]; [5]) | protein stability index (Saccharomyces cerevisiae [1]; [6]) | protein stability index (Saccharomyces cerevisiae [1]; [7]) | protein stability index (Saccharomyces cerevisiae [1]; [8]) | protein stability index (Saccharomyces cerevisiae [1]; [9]) | protein stability index (Saccharomyces cerevisiae [2])
1 | FFVFPFGLLFLS | 0.504 ± 0.058 | 0.515 ± 0.013 | 0.433 ± 0.023 | 0.583 ± 0.011 | 0.2525 ± 0.0007 | 0.232 ± 0.02 | 0.385 ± 0.0085 | 0.342 ± 0.0054
2 | SGRAWRLRMHVI | 0.663 ± 0.02 | 0.749 ± 0.011 | 0.661 ± 0.037 | 0.757 ± 0.018 | 0.263 ± 0.0029 | 0.269 ± 0.012 | 0.459 ± 0.041 | 0.406 ± 0.17
3 | YWFWLLIGSFSC | 0.487 ± 0.053 | 0.51 ± 0.013 | 0.382 ± 0.026 | 0.526 ± 0.011 | 0.36 ± 0.019 | 0.382 ± 0.024 | 0.504 ± 0.012 | 0.4576 ± 0.0029
4 | SPCLPRGVLFLA | 0.603 ± 0.055 | 0.7253 ± 0.004 | 0.667 ± 0.031 | 0.716 ± 0.005 | 0.2729 ± 0.0022 | 0.297 ± 0.022 | 0.437 ± 0.0099 | 0.367 ± 0.0063
5 | IVVSSRFLGFFC | 0.53 ± 0.073 | 0.701 ± 0.07 | 0.62 ± 0.032 | 0.742 ± 0.0077 | 0.0947 ± 0.012 | 0.102 ± 0.012 | 0.18 ± 0.0083 | 0.2 ± 0.0025
6 | VIFFEFFLSFGE | 0.267 ± 0.0089 | 0.481 ± 0.024 | 0.281 ± 0.026 | 0.452 ± 0.026 | 0.253 ± 0.033 | 0.32 ± 0.025 | 0.433 ± 0.0069 | 0.413 ± 0.0071
7 | YGWILQLPCFVI | 0.246 ± 0.02 | 0.237 ± 0.00093 | 0.24 ± 0.031 | 0.37294 ± 0.00032 | 0.219 ± 0.0057 | 0.245 ± 0.023 | 0.315 ± 0.027 | 0.338 ± 0.0082
8 | IYTLIINKSKAQ | 0.686 ± 0.024 | 0.685 ± 0.011 | 0.626 ± 0.046 | 0.696 ± 0.072 | 0.282 ± 0.024 | 0.362 ± 0.11 | 0.524 ± 0.017 | 0.429 ± 0.041
9 | SLLFPLPRPLLD | 0.7 ± 0.013 | 0.754 ± 0.018 | 0.677 ± 0.015 | 0.719 ± 0.016 | 0.686 ± 0.014 | 0.672 ± 0.024 | 0.7183 ± 0.005 | 0.731 ± 0.016
10 | FLFQYLCIISSL | 0.0463 ± 0.007 | 0.166 ± 0.037 | 0.133 ± 0.046 | 0.233 ± 0.023 | 0.0866 ± 0.028 | 0.0716 ± 0.026 | 0.161 ± 0.013 | 0.217 ± 0.037
11 | LRKARLFLKAKC | 0.645 ± 0.031 | 0.678 ± 0.041 | 0.497 ± 0.032 | 0.705 ± 0.0046 | 0.17 ± 0.022 | 0.219 ± 0.017 | 0.384 ± 0.0047 | 0.323 ± 0.03
12 | LRVVVGLCMCVL | 0.4743 ± 0.00078 | 0.503 ± 0.007 | 0.396 ± 0.024 | 0.516 ± 0.0088 | 0.385 ± 0.014 | 0.395 ± 0.019 | 0.4884 ± 0.0035 | 0.453 ± 0.015
13 | FLLCRVFVLLRS | 0.043 ± 0.019 | 0.0441 ± 0.015 | 0.13 ± 0.037 | 0.215 ± 0.0095 | 0.1414 ± 0.0013 | 0.102 ± 0.018 | 0.125 ± 0.038 | 0.163 ± 0.045
14 | RIAIRSAVICAS | 0.306 ± 0.05 | 0.379 ± 0.0076 | 0.276 ± 0.028 | 0.487 ± 0.0057 | 0.101 ± 0.032 | 0.138 ± 0.038 | 0.154 ± 0.02 | 0.183 ± 0.028
15 | YVSLPFVVWWFC | 0.443 ± 0.029 | 0.533 ± 0.016 | 0.414 ± 0.026 | 0.591 ± 0.0081 | 0.1839 ± 0.0011 | 0.198 ± 0.014 | 0.375 ± 0.0063 | 0.309 ± 0.033
16 | SINKLLILIKSI | 0.429 ± 0.026 | 0.618 ± 0.028 | 0.525 ± 0.03 | 0.629 ± 0.018 | 0.0798 ± 0.019 | 0.0738 ± 0.0087 | 0.112 ± 0.069 | 0.13 ± 0.028
17 | VLRACCDWGFLV | 0.53 ± 0.0055 | 0.696 ± 0.039 | 0.655 ± 0.017 | 0.77382 ± 0.00011 | 0.108 ± 0.0016 | 0.108 ± 0.03 | 0.163 ± 0.024 | 0.161 ± 0.02
18 | FFLLLVGFSVLG | 0.223 ± 0.071 | 0.265 ± 0.012 | 0.238 ± 0.024 | 0.421 ± 0.024 | 0.224 ± 0.024 | 0.222 ± 0.021 | 0.373 ± 0.0038 | 0.349 ± 0.0064
19 | LCVGFISFCFCL | 0.48 ± 0.032 | 0.4954 ± 0.0039 | 0.451 ± 0.0075 | 0.53 ± 0.015 | 0.434 ± 0.01 | 0.435 ± 0.014 | 0.512 ± 0.017 | 0.47934 ± 0.00045
20 | WVCCFVWGCLIR | 0.2 ± 0.044 | 0.187 ± 0.0078 | 0.239 ± 0.021 | 0.353 ± 0.027 | 0.295 ± 0.0035 | 0.233 ± 0.019 | 0.303 ± 0.0074 | 0.281 ± 0.0081

Row | Sequence | protein stability index (Saccharomyces cerevisiae [1]; [3]) | protein stability index (Saccharomyces cerevisiae [1]; [4]) | protein stability index (Saccharomyces cerevisiae [1]; [5]) | protein stability index (Saccharomyces cerevisiae [1]; [6]) | protein stability index (Saccharomyces cerevisiae [1]; [7]) | protein stability index (Saccharomyces cerevisiae [1]; [8]) | protein stability index (Saccharomyces cerevisiae [1]; [9]) | protein stability index (Saccharomyces cerevisiae [2])
21 | VIRIRLSCSVDV | 0.326 ± 0.04 | 0.42 ± 0.047 | 0.323 ± 0.022 | 0.411 ± 0.0063 | 0.313 ± 0.023 | 0.322 ± 0.021 | 0.387 ± 0.013 | 0.367 ± 0.026
22 | SFAVSSDYLFII | 0.69 ± 0.099 | 0.788 ± 0.028 | 0.689 ± 0.034 | 0.808 ± 0.032 | 0.316 ± 0.037 | 0.361 ± 0.023 | 0.582 ± 0.01 | 0.401 ± 0.019
23 | VRHPVVVVRRVI | 0.663 ± 0.017 | 0.746 ± 0.0067 | 0.649 ± 0.035 | 0.70566 ± 0.00012 | 0.3516 ± 0.0032 | 0.411 ± 0.025 | 0.576 ± 0.0099 | 0.508 ± 0.055
24 | KFWVVLIEIKYH | 0.0696 ± 0.0057 | 0.132 ± 0.03 | 0.159 ± 0.036 | 0.35 ± 0.092 | 0.0681 ± 0.015 | 0.0691 ± 0.036 | 0.1043 ± 0.00085 | 0.172 ± 0.0091
25 | SFFCFFLSFFYL | 0.571 ± 0.027 | 0.53 ± 0.0091 | 0.471 ± 0.011 | 0.562 ± 0.018 | 0.475 ± 0.025 | 0.445 ± 0.013 | 0.539 ± 0.02 | 0.502 ± 0.015
26 | CFFFPCFSFRFL | 0.39 ± 0.0076 | 0.448 ± 0.012 | 0.416 ± 0.024 | 0.528 ± 0.015 | 0.377 ± 0.02 | 0.296 ± 0.011 | 0.453 ± 0.033 | 0.342 ± 0.041
27 | GWRFCVFIYVHR | 0.0703 ± 0.011 | 0.0688 ± 0.0038 | 0.115 ± 0.033 | 0.196 ± 0.012 | 0.213 ± 0.018 | 0.107 ± 0.015 | 0.186 ± 0.0085 | 0.179 ± 0.042
28 | LFGFILLGVSCC | 0.0506 ± 0.0034 | 0.0719 ± 0.0073 | 0.164 ± 0.029 | 0.22 ± 0.0022 | 0.156 ± 0.0021 | 0.168 ± 0.024 | 0.193 ± 0.015 | 0.211 ± 0.029
29 | LFVSLSFVVFLP | 0.276 ± 0.0041 | 0.381 ± 0.014 | 0.26 ± 0.037 | 0.421 ± 0.013 | 0.261 ± 0.013 | 0.261 ± 0.025 | 0.391 ± 0.0072 | 0.34 ± 0.077
30 | CGFVFFVLVVFW | 0.112 ± 0.0055 | 0.17 ± 0.0063 | 0.12 ± 0.033 | 0.229 ± 0.0079 | 0.15 ± 0.0054 | 0.114 ± 0.025 | 0.193 ± 0.026 | 0.15 ± 0.035
31 | LWAPFWVSRVTA | 0.481 ± 0.017 | 0.513 ± 0.0085 | 0.408 ± 0.035 | 0.5677 ± 0.0039 | 0.21 ± 0.004 | 0.247 ± 0.026 | 0.42 ± 0.0086 | 0.347 ± 0.012
32 | FCCLIGYIWYGW | 0.45071 ± 0.00045 | 0.5083 ± 0.00082 | 0.392 ± 0.041 | 0.527 ± 0.013 | 0.344 ± 0.0071 | 0.363 ± 0.011 | 0.514 ± 0.039 | 0.488 ± 0.019
33 | GGTFWDGLVLVH | 0.34 ± 0.023 | 0.418 ± 0.03 | 0.32 ± 0.028 | 0.484 ± 0.0082 | 0.274 ± 0.013 | 0.334 ± 0.035 | 0.45476 ± 9.2e-06 | 0.497 ± 0.097
34 | PPSRSPLPPLLH | 0.657 ± 0.04 | 0.729 ± 0.024 | 0.687 ± 0.041 | 0.707 ± 0.017 | 0.6917 ± 0.0047 | 0.686 ± 0.027 | 0.694 ± 0.031 | 0.723 ± 0.027
35 | ASLSSSRPPLLP | 0.685 ± 0.053 | 0.752 ± 0.02 | 0.658 ± 0.025 | 0.7114 ± 0.0024 | 0.644 ± 0.02 | 0.648 ± 0.014 | 0.6962 ± 0.0011 | 0.746 ± 0.051
36 | VMLFYVGSGVVS | 0.654 ± 0.053 | 0.688 ± 0.038 | 0.54 ± 0.032 | 0.685 ± 0.016 | 0.545 ± 0.023 | 0.556 ± 0.02 | 0.671 ± 0.014 | 0.485 ± 0.11
37 | PRPETCHAVAVR | 0.568 ± 0.012 | 0.588 ± 0.037 | 0.377 ± 0.034 | 0.575 ± 0.015 | 0.363 ± 0.0093 | 0.4 ± 0.029 | 0.58 ± 0.011 | 0.4806 ± 0.0021
38 | VFLLLSLSVFFE | 0.0371 ± 0.0054 | 0.0844 ± 0.0086 | 0.138 ± 0.0083 | 0.225 ± 0.0081 | 0.109 ± 0.014 | 0.128 ± 0.043 | 0.142 ± 0.018 | 0.1721 ± 0.0014
39 | GDLEFCCLIIVL | 0.4401 ± 0.0033 | 0.556 ± 0.072 | 0.302 ± 0.018 | 0.5755 ± 0.005 | 0.27 ± 0.042 | 0.306 ± 0.032 | 0.5052 ± 0.0033 | 0.321 ± 0.0098
